According to US20200330603A1, “PEPTIDES FOR RENAL THERAPY” (FRED HUTCHINSON CANCER RESEARCH CENTER, priority 2015, published 2020):
Several values for one entry are separate records, joined by “and”; a condition that tells them apart may be missing. Identical values can stand only once.

system: trypsin; assay: Peptide stability in the presence of trypsin, RP-HPLC; assay type: in vitro ADME; conditions: 5 μg trypsin, pH 7.0, 30 minutes at 37.5° C.
Procedure: (§1) This example describes peptide stability in the presence of pepsin, trypsin, a reducing agent, or elevated temperature. Peptides were first suspended in 500 µl of ddH2O to a stock concentration of 2 mg/ml. […] These reactions were then quenched with 5 μg of soybean trypsin inhibitor (I) and, in some cases, 10 mM dithiothreitol (DTT). […] Temperature stability was tested by incubating peptides in non-reducing conditions at 70° C. for 1 hour. Stability was evaluated by RP-HPLC.

| Sequence | Trypsin |
| --- | --- |
| GSACLAEYQKCEGSTVPCCPGLSCSAGRFRKTKLCTK [SEQ ID NO: 32] | Not Resistant |
| GSACQFWSCNSSCISRGYRQGYCWGIQYKYCQCQ [SEQ ID NO: 34] | Partially Resistant |
| GSAEIIRCSGTRECYAPCQKLTGCLNAKCMNKACKCYGCV [SEQ ID NO: 28] | Not Resistant |
| GSAVCNLKRCQLSCRSLGLLGKCIGDKCECVKHG [SEQ ID NO: 22] | Partially Resistant |
| GSCIGEGVPCDENDPRCCFGLVCLKPTLHGIWYKSYYCYKK [SEQ ID NO: 30] | Partially Resistant |
| GSDCLPHLRRCRADNDCCGRRCRRRGTNAERRCR [SEQ ID NO: 1] | Partially Resistant |
| GSDRDSCIDKSRCSKYGYYQECQDCCKKAGHNGGTCMFFKCKCA [SEQ ID NO: 21] | Partially Resistant |
| GSECLEIFKACNPSNDQCCKSSKLVCSRKTRWCKYQIG [SEQ ID NO: 38] | Not Resistant |
| GSEVIRCSGSKQCYGPCKQQTGCTNSKCMNKVCKCYGCG [SEQ ID NO: 8] | Partially Resistant |
| GSGCFGYKCDYYKGCCSGYVCSPTWKWCVRPGPGR [SEQ ID NO: 16] | Not Resistant |
| GSGVPINVKCRGSRDCLDPCKKAGMRFGKCINSKCHCTP [SEQ ID NO: 11] | Resistant |
| GSISIGIKCSPSIDLCEGQCRIRKYFTGYCSGDTCHCSG [SEQ ID NO: 7] | Partially Resistant |
| GSNCAGYMRECKEKLCCSGYVCSSRWKWCVLPAPWRR [SEQ ID NO: 25] | Partially Resistant |
| GSNFKVEGACSKPCRKYCIDKGARNGKCINGRCHCYY [SEQ ID NO: 19] | Partially Resistant |
| GSQFCGTNGKPCVNGQCCGALRCVVTYHYADGVCLKMNP [SEQ ID NO: 23] | Partially Resistant |
| GSQIDTNVKCSGSSKCVKICIDRYNTRGAKCINGRCTCYP [SEQ ID NO: 27] | Not Resistant |

system: pepsin; assay: Peptide stability in the presence of pepsin, RP-HPLC; assay type: in vitro ADME; conditions: 20 μg pepsin, pH 1.05, 30 minutes at 37.5° C.
Procedure: as §1

| Sequence | Pepsin |
| --- | --- |
| GSACLAEYQKCEGSTVPCCPGLSCSAGRFRKTKLCTK [SEQ ID NO: 32] | Resistant |
| GSECLEIFKACNPSNDQCCKSSKLVCSRKTRWCKYQIG [SEQ ID NO: 38] | Resistant |
| GSGCFGYKCDYYKGCCSGYVCSPTWKWCVRPGPGR [SEQ ID NO: 16] | Not Resistant |
| GSGVPINVKCRGSRDCLDPCKKAGMRFGKCINSKCHCTP [SEQ ID NO: 11] | Resistant |
| GSQIDTNVKCSGSSKCVKICIDRYNTRGAKCINGRCTCYP [SEQ ID NO: 27] | Not Resistant |

system: not listed separately; assay: Plasma creatinine, Jaffe reaction method (Example 14); assay type: in vivo, mice; conditions: Table 3; 100 nmol iv, 24 hours post-peptide administration
Procedure: (§2) This example illustrates assessment of renal injury by peptides of this disclosure. Mice were injected intravenously at a dose of 100 nmol, which is approximately 16 mg/kg. PBS was administered as a negative control. At 24 hours post-peptide administration, mice were euthanized and plasma blood urea nitrogen (BUN) and plasma creatinine were measured. The blood urea nitrogen (BUN) assay was performed to assess renal toxicity with a commercially available kit. Plasma creatinine concentrations were determined using the colorimetrically corrected Jaffe reaction method. Additionally, the kidneys from these mice were removed, sectioned, and stained using periodic acid Schiff (PAS). […] Histological analysis corroborated the mRNA/protein data.

| Sequence | Plasma Creatinine [mg/dL] |
| --- | --- |
| GSDRDSCIDKSRCSKYGYYQECQDCCKKAGHNGGTCMFFKCKCA [SEQ ID NO: 21] | 0.33 |

system: not listed separately; assay: Blood urea nitrogen (BUN) assay in plasma, renal biocompatibility (Example 4); assay type: in vivo, mice; conditions: 100 nmol per mouse intravenously, after 24 hours, one value per mouse
Procedure: This example describes renal biocompatibility of peptides of this disclosure. The peptides of SEQ ID NO: 18, SEQ ID NO: 20, SEQ ID NO: 21, SEQ ID NO: 26, SEQ ID NO: 36, SEQ ID NO: 39, SEQ ID NO: 45 and SEQ ID NO: 53 were intravenously dosed into mice at 100 nmol per mouse. After 24 hours, mice were anesthesized with Ketamine-Xylazine and euthanized. Plasma and kidneys were removed as quickly as possible after euthanization. A blood urea nitrogen (BUN) assay was performed to assess renal toxicity with a commercially available kit.
The average BUN concentration in plasma for naïve mice was 25 mg/dL, with a standard error of 2 mg/dL. The average BUN concentration in plasma for peptide-dosed mice was 21, with a standard error of 1 mg/dL.

| Sequence | Peptide BUN |
| --- | --- |
| GSDRDSCIDKSRCSKYGYYQECQDCCKKAGHNGGTCMFFKCKCA [SEQ ID NO: 21] | 23 mg/dL and 17 mg/dL |

system: not listed separately; assay: Kidney histology, periodic acid Schiff (PAS) stain; assay type: in vivo, mice; conditions: 24 hours after intravenous administration of 100 nmol
Procedure: as §2

| Sequence | renal physiology (PAS histology, FIG. 24) |
| --- | --- |
| GSDRDSCIDKSRCSKYGYYQECQDCCKKAGHNGGTCMFFKCKCA [SEQ ID NO: 21] | normal renal physiology |

system: not listed separately; assay: Temperature stability at 70° C., RP-HPLC; assay type: physicochemical; conditions: non-reducing conditions, 70° C. for 1 hour
Procedure: as §1

| Sequence | Temperature (70° C.) |
| --- | --- |
| GSACLAEYQKCEGSTVPCCPGLSCSAGRFRKTKLCTK [SEQ ID NO: 32] | Resistant |
| GSECLEIFKACNPSNDQCCKSSKLVCSRKTRWCKYQIG [SEQ ID NO: 38] | Resistant |
| GSEVIRCSGSKQCYGPCKQQTGCTNSKCMNKVCKCYGCG [SEQ ID NO: 8] | Resistant |
| GSGCFGYKCDYYKGCCSGYVCSPTWKWCVRPGPGR [SEQ ID NO: 16] | Resistant |
| GSISIGIKCSPSIDLCEGQCRIRKYFTGYCSGDTCHCSG [SEQ ID NO: 7] | Resistant |
| GSQIDTNVKCSGSSKCVKICIDRYNTRGAKCINGRCTCYP [SEQ ID NO: 27] | Resistant |

system: not listed separately; assay: Plasma BUN, assessment of renal injury (Example 14); assay type: in vivo, mice; conditions: Table 3; 100 nmol iv (approximately 16 mg/kg), 24 hours post-peptide administration
Procedure: as §2

| Sequence | Plasma BUN [mg/dL] |
| --- | --- |
| GSDRDSCIDKSRCSKYGYYQECQDCCKKAGHNGGTCMFFKCKCA [SEQ ID NO: 21] | 20 |

system: not listed separately; assay: Peptide stability to a reducing agent (DTT), RP-HPLC; assay type: physicochemical; conditions: 10 mM DTT in PBS, room temperature, 30 minutes
Procedure: as §1

| Sequence | Reduction |
| --- | --- |
| GSACLAEYQKCEGSTVPCCPGLSCSAGRFRKTKLCTK [SEQ ID NO: 32] | Not Resistant |
| GSACQFWSCNSSCISRGYRQGYCWGIQYKYCQCQ [SEQ ID NO: 34] | Not Resistant |
| GSAEIIRCSGTRECYAPCQKLTGCLNAKCMNKACKCYGCV [SEQ ID NO: 28] | Partially Resistant |
| GSAVCNLKRCQLSCRSLGLLGKCIGDKCECVKHG [SEQ ID NO: 22] | Not Resistant |
| GSCIGEGVPCDENDPRCCFGLVCLKPTLHGIWYKSYYCYKK [SEQ ID NO: 30] | Not Resistant |
| GSDCLPHLRRCRADNDCCGRRCRRRGTNAERRCR [SEQ ID NO: 1] | Not Resistant |
| GSDRDSCIDKSRCSKYGYYQECQDCCKKAGHNGGTCMFFKCKCA [SEQ ID NO: 21] | Not Resistant |
| GSECLEIFKACNPSNDQCCKSSKLVCSRKTRWCKYQIG [SEQ ID NO: 38] | Not Resistant |
| GSEVIRCSGSKQCYGPCKQQTGCTNSKCMNKVCKCYGCG [SEQ ID NO: 8] | Not Resistant |
| GSGCFGYKCDYYKGCCSGYVCSPTWKWCVRPGPGR [SEQ ID NO: 16] | Not Resistant |
| GSGVPINVKCRGSRDCLDPCKKAGMRFGKCINSKCHCTP [SEQ ID NO: 11] | Resistant |
| GSISIGIKCSPSIDLCEGQCRIRKYFTGYCSGDTCHCSG [SEQ ID NO: 7] | Not Resistant |
| GSNCAGYMRECKEKLCCSGYVCSSRWKWCVLPAPWRR [SEQ ID NO: 25] | Not Resistant |
| GSNFKVEGACSKPCRKYCIDKGARNGKCINGRCHCYY [SEQ ID NO: 19] | Not Resistant |
| GSQFCGTNGKPCVNGQCCGALRCVVTYHYADGVCLKMNP [SEQ ID NO: 23] | Not Resistant |
| GSQIDTNVKCSGSSKCVKICIDRYNTRGAKCINGRCTCYP [SEQ ID NO: 27] | Not Resistant |
